Source: paper PMC7042235
pKd: −log10 of the molar value.

Target: microtubules (polymerized porcine tubulin) (porcine) (UniProt P02550)
Experiment: co-sedimentation; purified MTBDs (1-32 uM) mixed with 5 uM paclitaxel-stabilised porcine MTs; 100 mM PIPES pH 6.8, 50 mM NaCl, 2 mM MgCl2, 1 mM EGTA; 210,000 x g, 25 °C, 10 min; pellets on SDS-PAGE, densitometry, one-site curve fitting

With “MTBD-WT (microtubule-binding domain of yeast cytoplasmic dynein, K3096-E3232) (from UniProt P36022 3096-3232) (domain or fragment)” the pKd was 5.17.
